Data on nine molecules can be found in US20230357364A1 (INTERNATIONAL AIDS VACCINE INITIATIVE, published 2023).

Where a chain is given by its changes, count along the chain named.

The labels stand for the following.
B1: L6.P4A3.1 (antibody, V domains shown)
VH: QVQLVQSGAEVKKPGSSVKVSCKASGGIFSSSAISWVRQAPGQGLEWMGGIIPILDISNYAQKFQGRVTITADKSTSTAFMELSSLRSEDTAVYYCALTNQWDLLVYWGQGTLVTVSS
VL: EIVLTQSPGTLSLSPGERATLSCRASQRVSSSYLAWYQQKPGQAPRLLIYGAESRATGIPDRFSGSGSGTDFTLTISRLEPEDFAVYYCQHYGSSLWTFGQGTKLEIK
B2: L6.P4A3.3 (antibody, V domains shown)
VH: B1 VH with S25P, I28T, S58T, N59H, T99R
VL: B1 VL with R28D, L96E
B3: L6.P4A3.2 (antibody, V domains shown)
VH: B1 VH with S25P, I28T, G50T, S58T, L98Q, T99R
VL: B1 VL with R28S, S31A, L96R
B4: L6.P4A3.9 (antibody, V domains shown)
VH: B1 VH with A24S, I28T, I34Y, G50T, S58T, L98Q, T99R, L105I
VL: B1 VL with R28W, L34I, L96S
B5: L6.P4A3.8 (antibody, V domains shown)
VH: B1 VH with A24V, I28T, G50K, S58T, T99R
VL: B1 VL with R28S, S32H, L96P
B6: L6.P4A3.12 (antibody, V domains shown)
VH: B1 VH with I28L, S58T
VL: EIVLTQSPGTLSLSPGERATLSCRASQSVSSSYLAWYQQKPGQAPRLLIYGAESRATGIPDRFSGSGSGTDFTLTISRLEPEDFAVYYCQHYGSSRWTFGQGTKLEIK
B7: L6.P4A3.5 (antibody, V domains shown)
VH: B1 VH with S25V, I28T, S35Y, S58A, T99R, L105V
VL: B1 VL with R24H, R28S, L96T
B8: L6.P4A3.7 (antibody, V domains shown)
VH: B1 VH with I57Y, S58T, T99R
VL: B1 VL with R28E, L96A
B9: L6.P4A3.b (antibody, V domains shown)
VH: B1 VH with S25P, I28T, S58T, N59T, T99R, V106I
VL: B1 VL with R28S, S32H, E53S, A56Y, L96H

Chain of human insulin (P01308 25-54 limits assumed, chain 1 of 2): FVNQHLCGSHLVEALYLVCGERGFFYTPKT
Chain of human insulin (P01308 90-110 limits assumed, chain 2 of 2): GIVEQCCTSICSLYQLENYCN

This experiment addresses human insulin (human, UniProt P01308 25-54; P01308 90-110). Briefly: polyreactivity ELISA. For orientation: An ELISA detects its analyte on a solid surface through an enzyme-linked reagent.
On to B1, for which the binding result is given as “no binding”.

In the case of B2, the binding result is given as “no binding”.

With B3, the binding result is on record as “no binding”.

B4: the binding result is recorded as “no binding”.

For the molecule B5, the binding result is given as “no binding”.

Regarding B6, the binding result was “no binding”.

For B7, the binding result is “no binding”.

On to B8, for which the binding result is recorded as “no binding”.

In the case of B9, the binding result is “no binding”.
